Measurements from doi:10.1101/2020.05.11.089458 (bioRxiv, 2020).

Molecular target: the molecule itself
Experiment: SEC

| Protein | stoichiometry N |
| --- | --- |
| TatB^22-171 (soluble membrane-extrinsic cytoplasmic domain of E. coli TatB) (domain or fragment) PQRLPVAVKTVAGWIRALRSLATTVQNELTQELKLQEFQDSLKKVEKASLTNLTPELKASMDELRQAAESMKRSYVANDPEKASDEAHTIHNPVVKDNEAAHEGVTPAAAQTQASSPEQKPETTPEPVVKPAADAEPKTAAPSPSSSDKP | 4 |
| YpTatB^22-220 (soluble cytoplasmic domain of Yersinia pseudotuberculosis TatB) (domain or fragment) PERLPVAVRTVSGWIRTLRSLAATVQNELAQELKLQELQDSLKKVEQAGLQNLTPELKASMDELKEAAEALKRSYHVDAGSEAPHTIHNPLVTEPEAIHDGVTPAEPATQVSALAQAPNILEAGTASVADSVVEAAPVTTVKSVVQGEVLVKSTPVQEVGLADVMDKPVTKQQIDTIDSHGTDLSSAGPSRIHQPGGDQ | 3 |
